According to the supplement of paper PMC9732359:
± gives the uncertainty stated by the source.

Assay: protein stability index of a GFP-peptide fusion (yeast GPS) (PSI 1-4); higher = more stable; sorted into four equal gates, so the index is relative within each strain
Method in brief: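 Mid-log yeast cultures in leucine-free medium, carrying a pooled plasmid library, were sorted into four equal gates by their GFP/Cherry fluorescence ratio. Each plasmid expressed Cherry along with GFP fused upstream of a tiled 17-residue yeast protein peptide. Plasmids recovered from each gate were PCR-amplified and Illumina-sequenced, with reads assigned to strains by barcodes. The protein stability index was obtained by summing each gate's read frequency weighted by its gate number.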

Row | Sequence | protein stability index (doa10∆) | protein stability index (pdr5∆) | protein stability index (san1∆) | protein stability index (ubr1∆)
1 | GGGYFSAAGMTAAIDSV [FAS1] | 3.11 ± 0.15 | 3.23 ± 0.11 | 3 ± 0.24 | 3.07 ± 0.15
2 | ESEEAETKDIRKQIQLL [SRB4] | 2.53 ± 0.081 | 2.94 ± 0.086 | 2.5 ± 0.062 | 2.71 ± 0.075
3 | RTQAGDIVSIDIEEPQL [MTW1] | 2.99 ± 0.12 | 3.26 ± 0.1 | 3.36 ± 0.061 | 3.24 ± 0.081
4 | QPIEKNGDKMPLKFKLG [YJR042W/NUP85] | 2.74 ± 0.064 | 2.98 ± 0.069 | 2.52 ± 0.086 | 3.08 ± 0.042
5 | AKKTIQNPLNKSQNTAL [SIR4] | 3.02 ± 0.058 | 3.1 ± 0.054 | 2.99 ± 0.042 | 3.08 ± 0.045
6 | QPPTNVQPTIGQLPQLP [SNF5] | 3.14 ± 0.055 | 3.12 ± 0.063 | 3.09 ± 0.054 | 3.15 ± 0.043
7 | NNDGSYGLFLKYHKEQF [SRB8] | 2.61 ± 0.086 | 2.34 ± 0.07 | 2.12 ± 0.12 | 1.82 ± 0.069
8 | PKGATYGKPTNQGVNEL [RPL15A] | 3.02 ± 0.1 | 3.22 ± 0.085 | 3.2 ± 0.054 | 3.29 ± 0.044
9 | TTDDEEEPIKKLCYVLG [RET1] | 3.42 ± 0.27 | 3.29 ± 0.18 | – | 3.46 ± 0.17
10 | PFNKPNIETGENHNGQS [SWI3] | 3.3 ± 0.14 | 3.16 ± 0.12 | 3.22 ± 0.13 | 2.78 ± 0.13
11 | SDSIELLKQYPKDSSST [YJR042W/NUP85] | 2.62 ± 0.047 | 2.77 ± 0.051 | 2.61 ± 0.044 | 2.82 ± 0.041
12 | GTGRSGQGAFGNMCRGG [RPL4A] | 3.49 ± 0.14 | 3.37 ± 0.078 | 3.33 ± 0.11 | 3.24 ± 0.063
13 | IQISKLHYTPIEDLWQF [RPC82] | 2.26 ± 0.12 | 2.27 ± 0.13 | 2.09 ± 0.12 | 2.36 ± 0.15
14 | FHVGFIAKIKKVCECVC [RPO21] | 1.15 ± 0.046 | 1.27 ± 0.064 | 1.43 ± 0.11 | 1.26 ± 0.059
15 | KSGKRKPNIILDEDDTN [RPC31] | 3.29 ± 0.1 | 3.12 ± 0.092 | 3.35 ± 0.067 | 3.21 ± 0.046
16 | QINIMPSLKAHFTEIKL [SIR3] | 2.18 ± 0.056 | 2.1 ± 0.054 | 2.29 ± 0.057 | 2.4 ± 0.045
17 | QSAIRPAGQATQKRTHV [RPL4A] | 2.83 ± 0.09 | 2.8 ± 0.091 | 2.72 ± 0.085 | 2.5 ± 0.074
18 | RAQVLSLGDGTNYYLTT [CSL4] | 2.6 ± 0.061 | 2.66 ± 0.05 | 2.79 ± 0.048 | 3.08 ± 0.072
19 | IYEVDITVHAPLLPIVE [SNU114] | 2.32 ± 0.056 | 2.29 ± 0.056 | 2.19 ± 0.088 | 2.52 ± 0.043
20 | GQLTGIYRYKYKVMHQI [PRP8] | 2.9 ± 0.14 | 2.2 ± 0.13 | 2.91 ± 0.088 | 2.42 ± 0.081
21 | LKENEENEDGNIEERKE [BRR2] | – | 3.56 ± 0.27 | 3.13 ± 0.098 | –
22 | NQNQRNVNETMSRSLAN [SMC3] | 3.11 ± 0.12 | 2.65 ± 0.12 | 3.15 ± 0.059 | 2.86 ± 0.077
23 | FVWLSSEENIGSGLLKL [SWI1] | 3.3 ± 0.098 | 3.19 ± 0.09 | 3.28 ± 0.067 | 3.38 ± 0.068
24 | AGRGFTLAEVKAAGLTA [RPL13A] | 2.27 ± 0.073 | 2.5 ± 0.071 | 1.56 ± 0.093 | 1.77 ± 0.044
25 | TVLESLGRLNKLRKIAI [LIN1] | 2.66 ± 0.057 | 2.69 ± 0.049 | 2.66 ± 0.058 | 2.95 ± 0.035
26 | YNGFIDIFSNLSSDDLL [YCS4] | 3.16 ± 0.044 | 2.99 ± 0.066 | 3.28 ± 0.056 | 3.08 ± 0.037
27 | HYGNEHIRRMVPLAMGI [RPN1] | 1.29 ± 0.082 | 1.33 ± 0.064 | 1.24 ± 0.091 | 1.47 ± 0.065

Row | Sequence | protein stability index (doa10∆) | protein stability index (pdr5∆) | protein stability index (san1∆) | protein stability index (ubr1∆)
28 | VRNVKGPVRENDILVLM [RPS28A] | 3.24 ± 0.11 | 3.04 ± 0.1 | 3.5 ± 0.13 | 2.98 ± 0.074
29 | FNYGKLPLPPSVEWMKV [SIN4] | 2.6 ± 0.11 | 2.93 ± 0.093 | 2.93 ± 0.065 | 2.92 ± 0.064
30 | DILAKLFSLEKPNLNYF [SWI1] | 2.02 ± 0.056 | 1.96 ± 0.05 | 1.96 ± 0.063 | 2.08 ± 0.044
31 | MDLFMSTLGDCLGIKDE [GAL11] | 3.54 ± 0.25 | – | 3.38 ± 0.16 | 3.22 ± 0.2
32 | LIKKPLTVFYAIKKFKT [SSN3] | 1.51 ± 0.11 | 1.56 ± 0.048 | 1.77 ± 0.091 | 1.42 ± 0.075
33 | VDFDGLDIKRVGSENVE [SNF12] | 3.3 ± 0.19 | 3.32 ± 0.14 | 3.49 ± 0.24 | 3.35 ± 0.1
34 | KLKGLMKLNILDERFAS [IRR1] | 2.29 ± 0.13 | 2.75 ± 0.083 | 2.4 ± 0.16 | 2.35 ± 0.064
35 | SANTNNTCTISTSKFES [SWP82] | 2.59 ± 0.055 | 2.51 ± 0.07 | 2.43 ± 0.055 | 2.13 ± 0.04
36 | RNEEILRDIGECENEIK [SMC2] | 2.75 ± 0.094 | 2.94 ± 0.075 | 2.49 ± 0.12 | 3.23 ± 0.11
37 | ILAAAHRDAYSGGSVNL [PRE2] | 2.86 ± 0.078 | 3.2 ± 0.092 | 2.79 ± 0.062 | 2.89 ± 0.045
38 | VDEELGPSIYKTDPAGY [SCL1] | 3.12 ± 0.084 | 3.35 ± 0.074 | 3.29 ± 0.072 | 3.27 ± 0.083
39 | RFRKLTSQEINDRLEAL [PRE8] | 3.07 ± 0.14 | 3.01 ± 0.089 | 2.52 ± 0.24 | 2.91 ± 0.11
40 | KKFATVPTGGASSAAAG [RPP2B] | 3.17 ± 0.13 | 3.21 ± 0.14 | 2.89 ± 0.079 | 3.06 ± 0.067
41 | TYAAEIAHNISAKNRVV [RPL32] | 2.07 ± 0.043 | 2.27 ± 0.052 | 2.28 ± 0.068 | 2.13 ± 0.039
42 | MTIDDSNRLLMDVDQFD [YJR042W/NUP85] | – | 3.63 ± 0.21 | 3.25 ± 0.098 | 3.51 ± 0.2
43 | NSSSSTPNTNSNSTPNA [SWI1] | 2.96 ± 0.087 | 2.98 ± 0.09 | 3.12 ± 0.069 | 3.21 ± 0.059
44 | ELNEEKKRLMDIDDELN [SMC2] | 3.23 ± 0.095 | 3.42 ± 0.14 | 2.69 ± 0.15 | 3.51 ± 0.069
45 | NYTQNIDNLESYAGIST [SIR2] | 2.92 ± 0.059 | 2.96 ± 0.09 | 2.87 ± 0.071 | 3.01 ± 0.044
46 | FPTDLEIFQLFTNPSVD [SWI1] | 2.59 ± 0.069 | 2.88 ± 0.078 | 2.67 ± 0.07 | 2.35 ± 0.056
47 | VPLAMGIVSVSDPQMKV [RPN1] | 1.39 ± 0.041 | 1.63 ± 0.054 | 1.43 ± 0.1 | 1.51 ± 0.051
48 | TAFATEFFVQVLTHESL [DLS1] | 2.47 ± 0.11 | 2.71 ± 0.11 | 2.73 ± 0.088 | 2.02 ± 0.046
49 | STKFDYPPMPFDGFLFG [FAS1] | 2.56 ± 0.046 | 2.63 ± 0.051 | 2.68 ± 0.063 | 2.68 ± 0.037
50 | VNEMNDQLAQELKDLET [NNF1] | 2.9 ± 0.23 | – | 3.27 ± 0.12 | –
51 | SKLDIYTQQQALEYIGA [RET1] | 1.94 ± 0.12 | 2.23 ± 0.1 | 2.59 ± 0.12 | 1.89 ± 0.13
52 | QEQGSFQHILRLLNTNV [RPS18A] | 2.97 ± 0.045 | 3.06 ± 0.045 | 2.91 ± 0.037 | 3.03 ± 0.035
53 | ELSIRFPQYKLTTFANQ [ARP7] | 1.69 ± 0.062 | 1.51 ± 0.085 | 1.65 ± 0.12 | 1.59 ± 0.051
